Experimental data taken from PMC3617124.
One block for each substance: values may come before it.

Columns and labels:
Experiment in all cases: fluorescence polarisation
[1] = biological target: BAKΔC
[2] = biological target: BAX (recombinant, tagless, full-length) (human) (UniProt Q07812)
[3] = biological target: MCL-1ΔNΔC (residues 172–327) (UniProt Q07820)
[4] = biological target: BFL-1/A1ΔC
[5] = biological target: BCL-XLΔC
Sequence of BCL-XLΔC (Q07817 1-209, stated change not applied): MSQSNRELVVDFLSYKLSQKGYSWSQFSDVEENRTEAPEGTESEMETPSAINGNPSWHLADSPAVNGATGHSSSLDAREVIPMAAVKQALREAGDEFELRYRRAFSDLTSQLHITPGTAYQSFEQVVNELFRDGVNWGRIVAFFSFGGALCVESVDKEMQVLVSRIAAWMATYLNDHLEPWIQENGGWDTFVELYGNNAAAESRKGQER

Sequence of MCL-1ΔNΔC (residues 172–327) (Q07820 172-327, stated change not applied): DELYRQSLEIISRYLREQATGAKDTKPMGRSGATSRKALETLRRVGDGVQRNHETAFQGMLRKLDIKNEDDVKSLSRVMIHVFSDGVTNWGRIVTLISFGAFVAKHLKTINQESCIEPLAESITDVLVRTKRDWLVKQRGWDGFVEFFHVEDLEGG
Sequence of BAX (recombinant, tagless, full-length) (human) (Q07812 whole entry, the tested form may be a part): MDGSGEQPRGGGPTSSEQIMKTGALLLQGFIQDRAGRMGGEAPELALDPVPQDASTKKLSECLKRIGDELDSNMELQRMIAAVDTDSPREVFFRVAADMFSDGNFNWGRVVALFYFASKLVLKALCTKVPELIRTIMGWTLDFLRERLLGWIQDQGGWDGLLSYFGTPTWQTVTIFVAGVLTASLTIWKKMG

EC50 [1]: 173 nM
EC50 [2]: 283 nM
EC50 [3]: 19.8 nM
Substance: FITC-BIM SAHB (fluoresceinated stabilized α-helix of BCL-2 domain modeled after BIM BH3) (peptide)

IC50 [4]: 603 nM
Substance: N-terminally acetylated BIM SAHB (peptide; other documents disagree on this pair)

IC50 [5]: 572 nM
IC50 [1]: 827 nM
IC50 [2]: 314 nM
IC50 [3]: 136 nM
Substance: N-terminally acetylated BIM SAHB (peptide)
